# Tests used:
# human macrophages = assay: Gal-3BP-induced IL-2 secretion in monocyte-derived macrophages (ELISA); type: cell-based
# Experimental: (§1) Monocytes were isolated from peripheral blood of human healthy donors. Monocyte purity as assessed by flow cytometry for CD14 (clone HCD14, BioLegend, San Diego, Calif.) was routinely >97%. Monocytes were cultured for six days with M-CSF (100 ng/ml, Peprotech, Rocky Hill, N.J.) in macrophage serum-free medium (Gibco, Carlsbad, Calif.) supplemented with nutridoma SP (Roche, Nutley, N.J.), and penicillin/streptomycin (Sigma Aldrich).
# (§2) Measurement of cytokines was carried out with Ready set Go ELISA kits (eBioscience).
# (§3) Human blood monocytes were incubated with M-CSF (100 ng/ml) for 6 days to produce monocyte-derived macrophages (MO). These macrophages were incubated with interferon-γ (250 u/ml) for 1 day to produce M1 macrophages or with IL-4 (20 units/ml) to produce M2 macrophages or with PGE-2 (1 μM) to produce Mreg macrophages and then challenged with LPS (10 ng/ml) for another day or with Gal-3BP (10 μg/ml over 48 h).
# Human blood monocytes were cultured as in (A) (*P=0.05, ***P<0.0001). These macrophages were incubated with Gal-3BP (0.1,1 and 10 μug/ml) for 6 hours and IL-2 was measured by ELISA. […] Human blood monocytes were cultured as in (A). These macrophages were incubated with Gal-3BP (10 μg/ml) or LPS (10 ng/ml) for 6 hours (***P<0.0001).
# [1] = test system: intracellular free Ca^2+ in human M0 macrophages; assay: Ca2+ mobilization in M0 macrophages, fluo-4 fluorescence microscopy; type: cell-based; settings: Gal-3BP 10 ug/ml; M0 macrophages loaded with 1 μM fluo-4; FIG. 4
# Experimental: Human blood monocytes were cultured as described in Example 2 to produce MO macrophages, incubated with 1 μM fluo-4 for 30 minutes to quantify intracellular free Ca^2+ concentrations, and then triggered with Gal-3BP (10 ug/ml) with or without the PLC-γ inhibitor U73122 (10 nM). Thapsigargin (100 nM) served as positive control. Ca^2+ mobilization was assayed by fluorescence microscopy as previously described (Zanoni et al., Nature 460:264 (2009)). Each line is a measurement from a single cell (FIG. 4).
# NFAT [2] = assay: NFAT translocation to nucleus, immunofluorescence microscopy; type: cell-based, human; settings: Gal-3BP 10 μg/ml for 2 hours; M0 macrophages; FIG. 5
# Experimental: Cells were fixed in formaldehyde 4%, 10-20 min, room temperature. Cells were then permeabilized in chilled methanol, 5-10 min, and −20° C. in and washed extensively with PBS, then blocked using 5% donkey serum in PBS. Primary antibody (Rabbit anti-NFATc2/NFATp (1:50, ImmunoGlobe), diluted in PBS with goat serum 10%) was applied over night in 4° C. Biotin anti-rabbit antibodies (1:200 Molecular Probes) were incubated for 1 hour. Streptavidin, (Alexa Fluor® 594 conjugate*2 mg/mL*Cat. No. S-32356) detection 1:1000 for 1 hour. DAPI (1:1,000, Sigma Aldrich) for 5 min at room temperature.
# These macrophages were then incubated with Gal-3BP (10 μg/ml for 2 hours). Both samples were stained with DAPI (nuclear stain) and an antibody to NFAT (anti-NFAT c2/p IG 209, affinity purified rabbit antibody, ImmunoGlobe). Nuclear translocation was assessed by immunofluorescence microscopy (FIG. 5).
# [3] = test system: microRNAs known to be transcriptional targets of NFAT; assay: microRNA expression in M0 macrophages after Gal-3BP (miRCURY LNA Array); type: cell-based; settings: Gal-3BP 10 ug/ml; human M0 macrophages; fold-change screen; FIG. 7
# Experimental: The targets of NFAT signaling are largely cytokines, growth factors and their receptors, proteins involved in cell-cell interactions, as well as microRNAs (Crabtree and Schreiber, Cell, 138: 210 (2009)). To evaluate Gal-3BP's ability to induce NFAT signaling, microRNA expression in human M0 macrophages following Gal-3BP treatment was measured.
# Human M0 macrophages were challenged with Gal-3BP (10 ug/ml), small RNAs were isolated and screened for microRNA expression using miRCURY™ Power Labeling Kit and hybridized on the miRCURY™ LNA Array (v.11.0). The samples were hybridized using a hybridization station and scanned using the Axon GenePix 4000B microarray scanner. GenePix pro V6.0 is used to extract the raw intensity of the image. Differentially expressed microRNAs were identified through fold-change screen. […] These microRNAs reflect increased NFAT activity via Gal-3BP.
# NFAT [4] = assay: Gal-3BP-induced IL-2 secretion with or without NFAT inhibitors (ELISA); type: cell-based, human; settings: Gal-3BP 10 μg/ml for the times indicated; FIG. 6A
# Experimental: as §2
# To determine if NFAT is required for Gal-3BP-induced IL-2 secretion, human blood monocytes were incubated with M-CSF (100 ng/ml) for 6 days to produce monocyte-derived macrophages (M0). […] Macrophages were alternatively treated with Gal-3BP (10 μg/ml) in the absence or presence of CSA (1 μM) or FK506 (1 μM), another known NFAT inhibitor (FIG. 6B). […] (P values are ***0.0004, **0.006 and *0.034)
# [5] = test system: human monocyte-derived macrophages (M0); assay: Macrophage phenotype: IL-10, IL-2, IL-12 and IL-6 production (ELISA); type: cell-based; settings: Gal-3BP 10 μg/ml over 48 h
# Experimental: as §1, §2
# as §3, with “(M0).” for “(MO).”, “units/ml)” for “u/ml)”, “h). […] P values are indicated on the graphs.” for “h).”
molecule,measurement,setting,value
"Gal-3BP: Galectin-3 binding protein, a secreted 585 (murine 577) amino acid protein; human sequence SEQ ID NO:1 (protein, listed as Homo sapiens) MTPPRLFWVWLLVAGTQGVNDGDMRLADGGATNQGRVEIFYRGQWGTVCDNLWDLTDASVVCRALGFENATQALGRAAFGQGSGPIMLDEVQCTGTEASLADCKSLGWLKSNCRHERDAGVVCTNETRSTHTLDLSRELSEALGQIFDSQRGCDLSISVNVQGEDALGFCGHTVILTANLEAQALWKEPGSNVTMSVDAECVPMVRDLLRYFYSRRIDITLSSVKCFHKLASAYGARQLQGYCASLFAILLPQDPSFQMPLDLYAYAVATGDALLEKLCLQFLAWNFEALTQAEAWPSVPTDLLQLLLPRSDLAVPSELALLKAVDTWSWGERASHEEVEGLVEKIRFPMMLPEELFELQFNLSLYWSHEALFQKKTLQALEFHTVPFQLLARYKGLNLTEDTYKPRIYTSPTWSAFVTDSSWSARKSQLVYQSRRGPLVKYSSDYFQAPSDYRYYPYQSFQTPQHPSFLFQDKRVSWSLVYLPTIQSCWNYGFSCSSDELPVLGLTKSGGSDRTIAYENKALMLCEGLFVADVTDFEGWKAAIPSALDTNSSKSTSSFPCPAGHFNGFRTVIRPFYLTNSSGVD",IL-2 production,"human macrophages; Gal-3BP 10 μg/ml or LPS 10 ng/ml for 6 hours, FIG. 1C, P<0.0001",induces IL-2 production
same,IL-2 production,"human macrophages; Gal-3BP 10 μg/ml over 48 h, standard ELISA, FIG. 1A, P=0.0003",induced production of IL-2
same,"IL-2 production, concentration dependence","human macrophages; Gal-3BP 0.1, 1 and 10 μg/ml for 6 hours, ELISA, FIG. 1B",concentration dependently induces IL-2 production
same,Ca^2+ mobilization,[1],triggers Ca^2+ mobilization
same,NFAT translocation to nucleus,NFAT [2],induces NFAT translocation to nucleus
same,Number of eight NFAT-target microRNAs significantly up-regulated,[3],five were significantly up-regulated
same,IL-2 secretion over time,NFAT [4],induced secretion of IL-2
same,IL-10 production,[5]; FIG. 2A,moderate IL-10
same,IL-2 production,[5]; FIG. 2B,production of IL-2
same,IL-12 production,[5]; FIG. 2C,no IL-12
same,IL-6 production,[5]; FIG. 2D,little IL-6
